This is an account of results in paper PMC4479245, “The HDAC6/APOBEC3G complex regulates HIV-1 infectiveness by inducing Vif autophagic degradation” (Retrovirology, 2015).

For assay [1], the target named is T1, HA-dm-HDAC6 (in vitro translated) (human, UniProt Q9UBN7 1-1215, H216A | H611A).
T1 construct: also called dead-mutant (dm) HDAC6; H216A/H611A; not shown: HA, N-terminal, kept
T1 sequence (looked up): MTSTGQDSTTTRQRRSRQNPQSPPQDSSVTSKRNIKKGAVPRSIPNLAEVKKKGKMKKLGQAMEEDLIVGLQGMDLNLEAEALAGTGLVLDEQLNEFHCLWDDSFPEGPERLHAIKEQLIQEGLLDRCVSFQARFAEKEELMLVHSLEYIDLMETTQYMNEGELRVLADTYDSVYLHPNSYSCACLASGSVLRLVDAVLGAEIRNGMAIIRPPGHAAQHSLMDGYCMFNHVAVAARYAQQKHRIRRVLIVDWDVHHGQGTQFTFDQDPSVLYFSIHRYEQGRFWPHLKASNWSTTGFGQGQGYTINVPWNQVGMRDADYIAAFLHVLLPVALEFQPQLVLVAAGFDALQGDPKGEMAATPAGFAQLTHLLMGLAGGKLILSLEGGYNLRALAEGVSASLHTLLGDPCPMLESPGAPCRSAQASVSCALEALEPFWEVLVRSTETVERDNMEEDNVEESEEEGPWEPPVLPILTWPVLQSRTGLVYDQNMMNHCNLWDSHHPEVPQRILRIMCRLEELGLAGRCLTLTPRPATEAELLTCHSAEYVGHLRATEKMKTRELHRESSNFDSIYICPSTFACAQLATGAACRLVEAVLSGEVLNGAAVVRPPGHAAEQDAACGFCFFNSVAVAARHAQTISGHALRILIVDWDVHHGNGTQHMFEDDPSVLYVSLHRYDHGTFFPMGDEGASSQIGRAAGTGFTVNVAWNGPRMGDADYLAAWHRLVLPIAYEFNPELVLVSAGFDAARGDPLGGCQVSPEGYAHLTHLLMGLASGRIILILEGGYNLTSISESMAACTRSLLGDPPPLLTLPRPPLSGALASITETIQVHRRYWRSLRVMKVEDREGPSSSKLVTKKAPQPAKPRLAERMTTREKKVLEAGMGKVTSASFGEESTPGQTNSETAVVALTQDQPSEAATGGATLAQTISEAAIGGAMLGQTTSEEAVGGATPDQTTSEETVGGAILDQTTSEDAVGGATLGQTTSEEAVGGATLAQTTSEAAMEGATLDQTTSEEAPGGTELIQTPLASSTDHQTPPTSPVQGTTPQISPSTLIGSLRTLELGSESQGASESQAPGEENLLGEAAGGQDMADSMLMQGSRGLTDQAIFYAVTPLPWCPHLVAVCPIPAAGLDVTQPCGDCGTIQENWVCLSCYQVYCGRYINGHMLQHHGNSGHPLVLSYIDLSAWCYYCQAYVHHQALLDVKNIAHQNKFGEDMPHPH
In words: pull-down; 3 μg GST fusion protein immobilised on glutathione-Sepharose beads, 2 μg purified in vitro translated HA-tagged protein, overnight in RIPA buffer at 4°C, three washes; anti-HA blot. Particulars: both partners purified.

Assay [2] addresses T2, HA-wt-HDAC6 (in vitro translated) (human, UniProt Q9UBN7 1-1215).
T2 construct: also called HA-HDAC6; source: in vitro translated (rabbit-reticulocytes system), purified on anti-HA agarose; not shown: HA, N-terminal, kept
T2 sequence (looked up): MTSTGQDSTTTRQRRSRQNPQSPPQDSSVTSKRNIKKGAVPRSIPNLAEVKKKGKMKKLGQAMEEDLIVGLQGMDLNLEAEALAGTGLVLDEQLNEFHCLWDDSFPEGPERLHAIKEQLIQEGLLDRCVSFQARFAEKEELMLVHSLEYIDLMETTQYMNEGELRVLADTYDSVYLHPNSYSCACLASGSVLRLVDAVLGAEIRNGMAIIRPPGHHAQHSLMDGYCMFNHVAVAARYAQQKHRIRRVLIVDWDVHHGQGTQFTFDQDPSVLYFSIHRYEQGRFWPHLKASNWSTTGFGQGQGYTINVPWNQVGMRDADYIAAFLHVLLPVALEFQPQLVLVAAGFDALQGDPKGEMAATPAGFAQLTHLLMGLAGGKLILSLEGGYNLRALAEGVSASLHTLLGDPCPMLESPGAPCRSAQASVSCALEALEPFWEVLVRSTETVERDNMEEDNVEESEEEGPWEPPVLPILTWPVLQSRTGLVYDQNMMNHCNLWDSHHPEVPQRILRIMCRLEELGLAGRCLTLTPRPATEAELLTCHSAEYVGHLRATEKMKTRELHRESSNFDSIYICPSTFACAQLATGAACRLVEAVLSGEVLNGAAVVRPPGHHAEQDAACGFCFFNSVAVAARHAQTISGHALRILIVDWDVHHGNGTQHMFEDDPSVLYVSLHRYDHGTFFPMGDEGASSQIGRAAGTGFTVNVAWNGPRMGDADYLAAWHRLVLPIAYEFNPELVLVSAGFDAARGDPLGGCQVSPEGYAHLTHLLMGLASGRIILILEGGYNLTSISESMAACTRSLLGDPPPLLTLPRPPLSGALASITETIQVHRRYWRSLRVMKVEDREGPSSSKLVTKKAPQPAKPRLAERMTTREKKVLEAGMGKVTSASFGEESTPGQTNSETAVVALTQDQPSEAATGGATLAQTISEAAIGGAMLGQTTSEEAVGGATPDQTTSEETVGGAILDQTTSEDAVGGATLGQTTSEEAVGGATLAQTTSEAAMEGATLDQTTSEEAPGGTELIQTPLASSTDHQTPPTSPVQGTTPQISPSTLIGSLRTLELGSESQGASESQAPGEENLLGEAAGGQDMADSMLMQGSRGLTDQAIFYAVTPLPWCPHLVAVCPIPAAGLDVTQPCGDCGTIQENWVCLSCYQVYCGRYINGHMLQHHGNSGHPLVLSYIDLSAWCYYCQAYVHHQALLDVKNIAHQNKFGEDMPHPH
Described as above. Particulars: both partners purified.

B1: GST-A3G (natural protein, human, UniProt Q9HC16 1-384, looked up)
chain: MKPHFRNTVERMYRDTFSYNFYNRPILSRRNTVWLCYEVKTKGPSRPPLDAKIFRGQVYSELKYHPEMRFFHWFSKWRKLHRDQEYEVTWYISWSPCTKCTRDMATFLAEDPKVTLTIFVARLYYFWDPDYQEALRSLCQKRDGPRATMKIMNYDEFQHCWSKFVYSQRELFEPWNNLPKYYILLHIMLGEILRHSMDPPTFTFNFNNEPWVRGRHETYLCYEVERMHNDTWVLLNQRRGFLCNQAPHKHGFLEGRHAELCFLDVIPFWKLDLDQDYRVTCFTSWSPCFSCAQEMAKFISKNKHVSLCIFTARIYDDQGRCQEGLRTLAEAGAKISIMTYSEFKHCWDTFVDHQGCPFQPWDGLDEHSQDLSGRLRAILQNQEN
notes: also called wt-A3G; GST-A3G (wt); source: E. coli BL21-DE3, purified on GSH-Sepharose
B1: the binding result in assay [1] and in assay [2] was “binds” each time.

B2: GST-Vif (natural protein)
chain: not shown
notes: source: E. coli BL21-DE3, purified on GSH-Sepharose
For the molecule B2, the binding result in assay [2] is on record as “binds”.

B3: GST-A3G-C97A (natural protein, human, UniProt Q9HC16 1-384, looked up)
chain: MKPHFRNTVERMYRDTFSYNFYNRPILSRRNTVWLCYEVKTKGPSRPPLDAKIFRGQVYSELKYHPEMRFFHWFSKWRKLHRDQEYEVTWYISWSPATKCTRDMATFLAEDPKVTLTIFVARLYYFWDPDYQEALRSLCQKRDGPRATMKIMNYDEFQHCWSKFVYSQRELFEPWNNLPKYYILLHIMLGEILRHSMDPPTFTFNFNNEPWVRGRHETYLCYEVERMHNDTWVLLNQRRGFLCNQAPHKHGFLEGRHAELCFLDVIPFWKLDLDQDYRVTCFTSWSPCFSCAQEMAKFISKNKHVSLCIFTARIYDDQGRCQEGLRTLAEAGAKISIMTYSEFKHCWDTFVDHQGCPFQPWDGLDEHSQDLSGRLRAILQNQEN
notes: as for B2
On to B3, for which the binding result in assay [1] and in assay [2] was “binds” throughout.

B4: GST-A3G-D128K (natural protein, human, UniProt Q9HC16 1-384, looked up)
chain: MKPHFRNTVERMYRDTFSYNFYNRPILSRRNTVWLCYEVKTKGPSRPPLDAKIFRGQVYSELKYHPEMRFFHWFSKWRKLHRDQEYEVTWYISWSPCTKCTRDMATFLAEDPKVTLTIFVARLYYFWKPDYQEALRSLCQKRDGPRATMKIMNYDEFQHCWSKFVYSQRELFEPWNNLPKYYILLHIMLGEILRHSMDPPTFTFNFNNEPWVRGRHETYLCYEVERMHNDTWVLLNQRRGFLCNQAPHKHGFLEGRHAELCFLDVIPFWKLDLDQDYRVTCFTSWSPCFSCAQEMAKFISKNKHVSLCIFTARIYDDQGRCQEGLRTLAEAGAKISIMTYSEFKHCWDTFVDHQGCPFQPWDGLDEHSQDLSGRLRAILQNQEN
notes: as for B2
For the molecule B4, the binding result in assay [1] and in assay [2] was “binds” each time.
